Experiments:
[1] = molecular target: hCXCR4-V196E (human) (UniProt P61073); assay: flow cytometry, transfected HEK293T cells; normalisation reference (column 10 nM)
[2] = molecular target: cynomolgus CXCR4 (cynomolgus) (UniProt Q28474); assay: as above
[3] = molecular target: hCXCR4-V196E (human) (UniProt P61073); assay: flow cytometry, transfected HEK293T cells; normalisation reference (column 100 nM)
[4] = molecular target: cynomolgus CXCR4 (cynomolgus) (UniProt Q28474); assay: as above

Measured: % binding relative to hCXCR4

Chain of hCXCR4-V196E (human) (P61073 whole entry V196E): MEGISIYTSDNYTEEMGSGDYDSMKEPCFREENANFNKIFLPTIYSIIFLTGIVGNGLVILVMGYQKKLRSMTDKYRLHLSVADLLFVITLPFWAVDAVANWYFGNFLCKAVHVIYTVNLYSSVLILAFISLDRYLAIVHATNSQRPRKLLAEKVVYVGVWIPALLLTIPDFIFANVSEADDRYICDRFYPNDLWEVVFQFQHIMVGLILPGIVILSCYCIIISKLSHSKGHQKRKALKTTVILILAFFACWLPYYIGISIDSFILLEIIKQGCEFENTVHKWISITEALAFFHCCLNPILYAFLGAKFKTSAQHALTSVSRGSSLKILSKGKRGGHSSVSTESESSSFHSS
Chain of cynomolgus CXCR4 (cynomolgus) (Q28474 whole entry): as the sequence (P61073 whole entry V196E) above, with M24I, N35H, K38R, R146K, N176S, E196V counted along it

anti-CXCR4 monoclonal antibody 12G5 (R&D Systems, MAB170)
100%: all assays above
